In patent US20180080944A1:

Columns and labels:
[1] = target: Sab:KIM1/2 L-A (MAPK/JNK-binding deficient mutant of Sab, pLOC:Sab:KIM1/2 L-A) (UniProt O60239); assay: cell-based or functional assay
[2] = target: Src homology 3 domain binding protein 5 (SH3BP5 or SAB), ectopically expressed from pLOC:Sab (UniProt O60239); assay: cell-based or functional assay
Src homology 3 domain binding protein 5 (SH3BP5 or SAB), ectopically expressed from pLOC:Sab, sequence (O60239 whole entry): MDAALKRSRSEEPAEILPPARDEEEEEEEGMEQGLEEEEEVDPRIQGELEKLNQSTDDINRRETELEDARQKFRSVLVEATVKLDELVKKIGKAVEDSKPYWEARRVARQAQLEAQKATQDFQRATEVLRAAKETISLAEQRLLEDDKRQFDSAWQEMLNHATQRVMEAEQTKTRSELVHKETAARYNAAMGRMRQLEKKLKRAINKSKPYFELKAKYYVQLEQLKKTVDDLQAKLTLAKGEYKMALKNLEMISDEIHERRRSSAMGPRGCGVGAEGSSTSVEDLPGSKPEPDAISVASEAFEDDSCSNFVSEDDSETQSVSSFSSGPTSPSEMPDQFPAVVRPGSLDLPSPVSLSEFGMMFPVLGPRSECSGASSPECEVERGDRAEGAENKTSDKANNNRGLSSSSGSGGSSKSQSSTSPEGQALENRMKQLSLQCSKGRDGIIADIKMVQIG

Sab:KIM1/2 L-A (MAPK/JNK-binding deficient mutant of Sab, pLOC:Sab:KIM1/2 L-A), sequence (O60239 other isoform, or with tags, fused parts or gaps mutant limits assumed): as the sequence (O60239 whole entry) above, with L347A, L349A, L434A, L436A counted along it

Substance c-Jun N-terminal Kinase (JNK) (enzyme) has a Cisplatin IC50 (nM), HeLa cells with ectopic expression, TO-PRO-3 staining [1] of 3.1 nM, a Paclitaxel IC50 (µM), HeLa cells with ectopic expression, TO-PRO-3 staining [1] of 13.8 µM and a Cisplatin IC50 (nM), HeLa cells with ectopic expression, TO-PRO-3 staining [2] of 0.42 nM. It also gave a Paclitaxel IC50 (µM), HeLa cells with ectopic expression, TO-PRO-3 staining [2] of 4.7 µM and a fold decrease in the IC50 of paclitaxel in HeLa cells against untreated, mock-transfected or RFP-expressing cells [2] of 5 fold.
